Results published in PMC11839208 (2025).

Molecular target: Concanavalin A (Canavalia ensiformis, UniProt P02866)
Test: spectral shift (thermal shift in results)

Sequence of Concanavalin A (P02866 30-148, chain 1 of 2): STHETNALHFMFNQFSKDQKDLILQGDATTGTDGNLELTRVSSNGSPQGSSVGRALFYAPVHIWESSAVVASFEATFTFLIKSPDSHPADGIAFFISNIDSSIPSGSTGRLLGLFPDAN
Sequence of Concanavalin A (P02866 164-281, chain 2 of 2): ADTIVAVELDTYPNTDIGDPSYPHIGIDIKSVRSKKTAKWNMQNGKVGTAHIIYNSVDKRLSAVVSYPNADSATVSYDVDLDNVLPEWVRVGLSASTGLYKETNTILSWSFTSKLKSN

B1: FimA (protein)
chain: AATTVNGGTVHFKGEVVNAACAVDAGSVDQTVQLGQVRTASLAQEGATSSAVGFNIQLNDCDTNVASKAAVAFLGTAIDAGHTNVLALQSSAAGSATNVGVQILDRTGAALTLDGATFSSETTLNNGTNTIPFQARYFATGAATPGAANADATFKVQYQ
B1 was tested. Which Kd did it give?
The Kd was about 40 µM.
